Results reported in publication PMC3438964 (The Journal of Biological Chemistry, 2012).
Substitutions are numbered along the chain they refer to. Numbers in names are those of the source.

Experiments:
hUXS1 = target: T1, hUXS1 (Homo sapiens, UniProt Q8NBZ7); assay: X-ray crystal structure, […] Å; format: binding; conditions: SeMet-labelled protein; 5 mM NAD+, 5 mM UDP; coenzyme site
T1 sequence (Q8NBZ7 85-402): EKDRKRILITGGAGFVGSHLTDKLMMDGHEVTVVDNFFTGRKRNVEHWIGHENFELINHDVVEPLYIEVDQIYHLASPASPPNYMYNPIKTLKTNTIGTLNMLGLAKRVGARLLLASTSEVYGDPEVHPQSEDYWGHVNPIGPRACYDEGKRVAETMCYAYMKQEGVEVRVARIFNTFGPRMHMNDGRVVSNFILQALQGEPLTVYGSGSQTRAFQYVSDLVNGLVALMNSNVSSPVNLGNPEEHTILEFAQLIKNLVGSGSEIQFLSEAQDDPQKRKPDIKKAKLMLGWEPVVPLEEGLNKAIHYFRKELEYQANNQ

purified protein = substrate: O=C(O)[C@H]1O[C@H](OP(=O)(O)OP(=O)(O)OC[C@H]2O[C@@H](n3ccc(=O)[nH]c3=O)[C@H](O)[C@@H]2O)[C@H](O)[C@@H](O)[C@@H]1O; assay: purified protein; conditions: 50 mM Tris/HCl pH 7.5, 25 °C

In the case of `NC(=O)c1ccc[n+]([C@@H]2O[C@H](COP(=O)(O)OP(=O)(O)OC[C@H]3O[C@@H](n4cnc5c(N)ncnc54)[C@H](O)[C@@H]3O)[C@@H](O)[C@H]2O)c1` [NAD^+], the “X-ray crystal structure, 1.26 Å” value (hUXS1) is reported as “We solved the crystal structure of hUXS1 in complex with NAD^+ and UDP”.

B1: hUXS1 (Homo sapiens) (protein)
chain: T1 sequence (Q8NBZ7 85-402)
B1 was tested, and the kcat (purified protein; 0.5 mM NAD+) was 0.2/oxidation^e.

B2: hUXS1 (Homo sapiens; E204A) (protein)
chain: T1 sequence (Q8NBZ7 85-402) with E120A
B2 was tested, and the kcat (purified protein; 10 mM NAD+) was 1.7 × 10^−3/reduction^e.
